Source: the DeepSol protein solubility set

test: soluble on expression in E. coli; label from the status in PepcDB or PDB records

Row | Sequence | soluble on expression in E. coli
1 | MSLTTRIGFLLFPGFPMACLTSIIEPLRAANEISMSDSFAWRLVSELPRKVVSSAGITFEPDASLETVSALDYLVLLSAPVARFENPRTASLLRRIERHGTVLGAISGGVFPLVRSGVVRDERLSVHWCYEAAFAAEFPEIQRSNEVIEISPRLLTASGAAAAFDLALSLIEAALGANVANEVACWFQHPIMRKAGVKQALPIHQAADAEGEMSPLVARAIEIFAENLTTPASIAAIAERLHITPRHLERCFKQATGQNPTGYFRHLRMQAARQIVMYTNDSIAEVATAVGYANAKPLVRHYRDTFGLTPQQDRKRINLYRVEGNEGHHHHHH | not soluble
2 | MSLTVRQLASLTRGAVRTLATDGAVAVLPIGAVEQHGDHLPLGTDFLLVEAVCDRAMQQLEDDRTTWVRVPTMTFGHSPHHLFAAAVSLQAGTLTDVLADVLDSLAQTGFRRIVIVNGHGGNDELVRLAVKAHSLHAEGTAAACSYWTLTAQTTAEAAATERPDRTPGHAGWFETSLMLAVHPELVADDRPFTPSDPPPLFNRSPAPGLTVERHGEWPRVGGTTDDAREASAETGRLLLGRRVAGLVAALQSLDRATATPPAASVPSTDRERGPQAEGHHHHHH | not soluble
3 | MSLVDTAKVLILDDQAVSRSILSKIVRNLGRGIKTCEFSSPTEALLWAQDNTADLLLVDYEMPGMNGLCFINEITRLPQYQTVPTIMITIKQDVEIRYAALDAGVTDFLTKPVDMHECMARCKNLITLRQQRLTLEDEGHHHHHH | soluble
4 | MSLVEAISLWNEGVLAADKKDWKGALDAFSAVQDPHSRICFNIGCMYTILKNMTEAEKAFTRSINRDKHLAVAYFQRGMLYYQTEKYDLAIKDLKEALIQLRGNQLIDYKILGLQFKLFACEVLYNIAFMYAKKEEWKKAEEQLALATSMKSEPRHSKIDKAMECVWKQKLYEPVVIPVGKLFRPNERQVAQLAKKDYLGKATVVASVVDQDSFSGFAPLQPQAAEPPPRPKTPEIFRALEGEAHRVLFGFVPETKEELQVMPGNIVFVLKKGNDNWATVMFNGQKGLVPCNYLEPVELRIHPQQQPQEESSPQSDIPAPPSSKAPGRPQLSPGQKQKEEPKEVKLSVPMPYTLKVHYKYTVVMKTQPGLPYSQVRDMVSKKLELRLEHTKLSYRPRDSNELVPLSEDSMKDAWGQVKNYCLTLWCENTVGDQGFPDEPKESEKADANNQTTEPQLKKGSQVEALFSYEATQPEDLEFQEGDIILVLSKVNEEWLEGECKGKVGIFPKVFVEDCATTDLESTRREV | soluble
5 | MSLVERVILIVLDSVGAGEMPDADKYGDKGSDTIGNISKAVGGLKLPDMVKMGLGNISGIKGVDKVQYPIGAFGKLKEMSKGKDTVTGHWEMSGVILEEPLNTYPNGFPKDIIDEFEKKIGRKVIGNKVASGTEIIKELGDEHIKTGCPIVYTSADSVFQVAAHEEIIPLDELYKICKVAREMLVDDRTVGRVIARPFVGKNSNYTRTSNRRDFALDPFNKTMLEYIKENKSNVMCVGKIEDIFNKKGVTEAVHIKNNMDGVDKTLEYMKTDKKGLIFTNLVDFDMLYGHRNDPKGYAKALEEFDGRINEIKTNMKDYDVLMITADHGCDPTTESTDHSREYIPFIAYGKDIKGGADIKIRDSFSDIGKTILDLLQVENNLVGKSFKDIIMKEGHHHHHH | not soluble
6 | MSLVEVYLNSSSMIPIDRYYEYDIYDLVIEAYKNFEGEYDVNSIDLIVVANAYSQKLNNASLIAPKIAEKIGKPNVPSIKVDNADASGGAALLTAYSLIKSNMVNSVLIVGVEKQSDYPSKYLYDAISTNLDDYMFYNGISSHSVAALLMRQYMKRYGVDRNYFANWAIKMHKNATENPFAYLRFQVDLNTVINSQIISDPVRLFDVGARADGAAILLLSNNKTESAVKINKILSAQARYDFSPSLPSVRMLRDKLELKFSERTGIDIHDSYSIMAALMLEEAGIFESGKSLHNLDSVNVNLGGGLKARGHVGGASAIYQLAEAHMQLIGSFKGKKASVDNYIVISSDDLGMVSYGINLSREGHHHHHH | not soluble
7 | MSLVGDVYLGVGSASSEYWAAYIEGAKAVASSLGKDVNVIPSEFDGQKLLEQFGAVFAAGCEDCVVTVDPASNAFTKAMIERADTAGAKYVNLWNRPDEIHPWDTVPNTWIANISFDGVDSGYQNGMALCNALGGKGNIVALNGIPDNPPAKQRIAGLHKALQECPGLKLLDTQVGNWDQTQGQSITRAWLAKYGDELNGIFSANDGMALGAVAALREKGLVGKILVTGSDGSSDVIKLIEKGEMLSTMHIDGYVQGAYAVALAAAAVKGDIKMDELKQDQRDFFLSQTLVTKDNAASVLNSKEGHHHHHH | not soluble
8 | MSLVINAPFKVIASKVTAEVLKSVNSKLGSYSTNYATSSEARATNVAVATRSIDGKVVMPGETFSFNEVVGERTRARGYKEAGVIVNQKLESGFGGGVCQVSSTLYNALLRSNIKMTERVHHTFPSSYVPTGLDATVDWGNIDLKFKNTFKYPIYIQGYTGGREVGFNIYSNSELAREGHHHHHH | not soluble
9 | MSLVKKGAALLMVATMALSSAACSNSKTEGKPEVQAKVAPVEKNGDKTVIRFWHAMGGKTQGVLDGLVADYNKSQNKYEIKAEFQGTYEESLTKFRTMSATKEAPALVQSSEITTKYMIDSKKITPIDSWIKKDKYDTSKLEKAITNYYSVDGKMYSMPFNSSTPVLIYNKDAFAKAGLDPEKAPKTYAELQEAAKKLTIKEGGNVKQYGFSMLNYGWFFEELLATQGALYVDNENGRKDAAKKAVFNGKEGQKVFGMLDDLNKAGALGKYGASWDDIRAAFQSGQVAMYLDSSAGVRDLIDASKFNVGVSYIPYPEDSKQNGVVIGGASLWMTNMVSEETQQGAWDFMKYLTKPDVQAKWHTATGYFSINPDAYNEPLVKEQYEKYPQLKVTVDQLQATKQSPATQGALISVFPESRDAVVKALEAMYDGKNSKEALDEAAKATDRAISISARTSQK | not soluble
10 | MSLVLNFVGTGTLTRFFLECLKDRYEIGYILSRSIDRARNLAEVYGGKAATLEKHPELNGVVFVIVPDRYIKTVANHLNLGDAVLVHCSGFLSSEIFKKSGRASIHPNFSFSSLEKALEMKDQIVFGLEGDERGLPIVKKIAEEISGKYFVIPSEKKKAYHLAAVIASNFPVALAYLSKRIYTLLGLDEPELLIHTLMKGVADNIKKMRVECSLTGPVKRGDWQVVEEERREYEKIFGNTVLYDEIVKLLREVAESERREAQEDEREGGSHHHHHH | soluble
11 | MSLVLSAGRLNKNSLGIAVLLCTGLLLAGCSSNSGSGTYSGSVYTVKRGDTLYRISRATGTSVKELARLNGISPPYTIEVGQRIKVRGSAKSSTSTRKTSNKTATKTAAVRPSSSVPKSSWPPVGQRCWVWPANGKVILPYSTAEGGNKGIDIAGARGTPVYAAGAGKVVYVGNQLRGYGNLIMIKHNEDYITAYAHNDTMLVNNGQSVKAGQKIATMGSTDAASVRLHFQIRYRATAIDPLRYLPPQGSKPKCEGHHHHHH | not soluble
12 | MSLVVEHNPFAKRYRKGMKRIALVYPNRYVGGITNLGLQYIYARINESDAICERFYADVFDGLRSIESATPLSEFDVALFSLQYETDYFKAVEILKRSGFKGLKIAGGPCVMENPQPLMDYFHAFFIGEVEGYVEELIHAKNAEELSGIPGVFTGREEKVKRVYAKLDRHIEKEIIGEGAYGRCFLLEIGRGCVRRCRFCIVRQIYFPPRWRKKEMLPEIGEEKVAIIAPSPSDHPQFKEILQHYVEQGKEVSPSSVRADTLDEELADLLKKAGVKTLTIAPETASDKLQEVINKGIGDEEVMRAAELASTRFEKVKLYYMVGLPGESFEDVKAILEQALRVKKLVGKVEISVNPLVPKPHTPLQWMGFGGEEELREGISHLKKKLEYLRREARRAGIGADVSGFKEFAIQTILSRGDREVAEMLEGASYRKFEKYLKPINPDSPLPWDFIDHGYRKSTLLKEYDKIKKILEGHHHHHH | not soluble
13 | MSLVWLAELPDEILENLYPGEDVLYSVKKKLYTELKPKYLIVTDRRIIYLDQKILGRYDLIDIPYEKLEFVHFKKGKIGAKFIIRNEEGEEIVLTWMEKDEAEKAIEAIRDAINAIAVEPVSIQKRKGILGFELELSKPKEFITRTYPQAVAKAAPKEDPIERIRKLKELYESGVISREEFEEKKRKLLDQIEGHHHHHH | soluble
14 | MSLWQPLVLVLLVLGCCFAAPRQRQSTLVLFPGDLRTNLTDRQLAEEYLYRYGYTRVAEMRGESKSLGPALLLLQKQLSLPETGELDSATLKAMRTPRCGVPDLGRFQTFEGDLKWHHHNITYWIQNYSEDLPRAVIDDAFARAFALWSAVTPLTFTRVYSRDADIVIQFGVAEHGDGYPFDGKDGLLAHAFPPGPGIQGDAHFDDDELWSLGKGVVVPTRFGNADGAACHFPFIFEGRSYSACTTDGRSDGLPWCSTTANYDTDDRFGFCPSERLYTRDGNADGKPCQFPFIFQGQSYSACTTDGRSDGYRWCATTANYDRDKLFGFCPTRADSTVMGGNSAGELCVFPFTFLGKEYSTCTSEGRGDGRLWCATTSNFDSDKKWGFCPDQGYSLFLVAAHEFGHALGLDHSSVPEALMYPMYRFTEGPPLHKDDVNGIRHLYGPRPEPEPRPPTTTTPQPTAPPTVCPTGPPTVHPSERPTAGPTGPPSAGPTGPPTAGPSTATTVPLSPVDDACNVNIFDAIAEIGNQLYLFKDGKYWRFSEGRGSRPQGPFLIADKWPALPRKLDSVFEEPLSKKLFFFSGRQVWVYTGASVLGPRRLDKLGLGADVAQVTGALRSGRGKMLLFSGRRLWRFDVKAQMVDPRSASEVDRMFPGVPLDTHDVFQYREKAYFCQDRFYWRVSSRSELNQVDQVGYVTYDILQCPED | soluble
15 | MSLYPDDSLTLHTDLYQINMMQVYFDQGIHNKKAVFEVYFRQQPFKNGYAVFAGLERIVNYLEDLRFSDSDIAYLESLGYHGAFLDYLRNFKLELTVRSAQEGDLVFANEPIVQVEGPLAQCQLVETALLNIVNYQTLVATKAARIRSVIEDEPLMEFGTRRAQEMDAAIWGTRAAVIGGANGTSNVRAGKLFDIPVLGTHAHALVQVYGNDYEAFKAYAATHKNCVFLVDTYDTLRIGVPAAIQVARELGDQINFMGVRIDSGDIAYISKKVRQQLDEAGFTEAKIYASNDLDENTILNLKMQKAKIDVWGVGTKLITAYDQPALGAVYKIVAIEDETGQMRNTIKLSNNAEKVSTPGKKQVWRITSREKGKSEGDYITYDGVDISYMTEIKMFHPTYTYIKKTVRNFDAVPLLVDIFKEGILVYNLPSLTDIQDYARKEFDKLWDEYKRVLNPQHYPVDLARDVWQDKMDLIDKMRKEALGEGEEEEGHHHHHH | soluble
16 | MSLYVPGKQVTLAHIIASPNKEIYTKLGLPEGTSNALGILTITPSEAAIIAVDIATKSGDIQIGFIDRFSGSVVISGDVSSVEAALQAVIEGLQQILNFSVTCKEGHHHHHH | not soluble
17 | MSLYVVISPTGRTDGNIPARGYAGPSGRLDVIARAYNAILEPNATLAALLMGGPLPPRLLIAPLSCKDIVRSERSFMIEASRALRGRRSCFTVNDEGVEALASLLRRFKPRILLAEKGGDISSHWGEMCSSSPTFIAGSHLDPPHGLIKHLERSLGGFLRVSVGPLSLHTDHVFLLVSALRLPMHATSIEHH | not soluble
18 | MSLYYINLKQERILKFIEKFGVARIEHMKRILNIKDIDNQFKILIRQRKVKLVFNDICVLDGKKELNIKMIKALDLYSYLHLNNGGIPIEWCMPQDFPFTIAFFRNSKVFDVAIINEGEETIYSSAINRGVSERVIVVLSEENQKENIKINKQIKCCTIEDGVLNFEGHHHHHH | not soluble
19 | MSMDISDFYQTFFDEADELLADMEQHLLDLVPESPDAEQLNAIFRAAHSIKGGAGTFGFTILQETTHLMENLLDEARRGEMQLNTDIINLFLETKDIMQEQLDAYKNSEEPDAASFEYICNALRQLALEAKGETTPAVRSHHHHHH | soluble
20 | MSMEDPFFVVKGEVQKAVNTAQGLFQRWTELLQGPSAATREEIDWTTNELRNNLRSIEWDLEDLDETISIVEANPRKFNLDATELSIRKAFITSTRQIVRDMKDQMSASS | soluble
